# In the DeepSol protein solubility set:
# Test: soluble on expression in E. coli; label from the status in PepcDB or PDB records
row,Sequence,soluble on expression in E. coli
1,MPVSLLKAHEAEMWEVHFHPSNPDHLFTCSEDGSLWHWDASTNAPEKSSLFHQGGRSSTFLSHSLSNQAGVHQSLVSSWLSTDPAKDRIEITSLLPSRTLSVNSLDVLGPCLVCGTDAEAIYVTRQLFS,not soluble
2,MLPNNQWQIPINNGLTHQENMAAHAAVMKLRVHDLQSIISQLSLRKPRPQKSEHQKVVVESLRDPHHARQIYQMVISLIFSSLQASNFPNGNYEMQKRPATTSQVRSHPYVLPSRSGASNHLVNHHYQQQQQQQPQPHNLLHQQMMASHHSHLQQQHHPSTPKKMYADNFEPLPLPFYDVISVLLKPVELHSSDSPTLKQTKQLQFPFLLTAEHISKISYRADVTPLPRYELQLRFFNLTEPVQGPQKDDFPLNCYARVDDSVVQLPNVIPTNKTNAEPKRPSRPVNITSNMNRYKKEHTVAVEWLADKRVWAAGVYFVHRVNSDILFKRLNQNVSRHRSLEVTKQEVIKKLSGGEDDIAMDRLNISLLDPLCKTRMTTPSRCQDCTHLQCFDLLSYLMMNEKKPTWQCPVCSSNCPYDRLIVDDYFLDMLAKVDKNTTEVELKEDGSYDVIKEEAFCISDDDDDDVVPATVNGTASCSSTNGNGLANEAAKKKPADDDIITLSDDDDEELNRGIMNSLNDSFSPGRHTASAELAAQKTPPQQKKKTKDDDIEIITLDDTPPRPVAASANLPMRQMSQQNQMPVGSSPSGMASTQMGMNEGASKTIRDALNKIGEPMINQAPHFQMQNGLIGRNNQMVHMQQHHLQQQQQQQQSPQIMSPSFYAQQQMSNGGAFAYYPPQYPQQQYRQN,not soluble
3,MAEKRTVRPFAGTERRAKGWIQEAALRMLNNNLHPDVAERPDELIVYGGIGKAARNWECYEAIVDTLLRLENDETLLIQSGKPVAVFRTHPDAPRVLIANSNLVPAWATWDHFHELDKKGLIMYGQMTAGSWIYIGSQGIVQGTYETFAEVARQHFGGTLAGTITLTAGLGGMGGAQPLAVTMNGGVCLAIEVDPARIQRRIDTNYLDTMTDSLDAALEMAKQAKEEKKALSIGLVGNAAEVLPRLVETGFVPDVLTDQTSAHDPLNGYIPAGLTLDEAAELRARDPKQYIARAKQSIAAHVRAMLAMQKQGAVTFDYGNNIRQVAKDEGVDDAFSFPGFVPAYIRPLFCEGKGPFRWVALSGDPEDIYKTDEVILREFSDNERLCHWIRMAQKRIKFQGLPARICWLGYGERAKFGKIINDMVAKGELKAPIVIGRDHLDSGSVASPNRETEGMKDGSDAIADWPILNALLNAVGGASWVSVHHGGGVGMGYSIHAGMVIVADGTKEAEKRLERVLTTDPGLGVIRHADAGYELAIRTAKEKGIDMPMLK,soluble
4,MSLSQQVIIFDTTLRDGEQALQASLSVKEKLQIALALERMGVDVMEVGFPVSSPGDFESVQTIARQVKNSRVCALARCVEKDIDVAAESLKVAEAFRIHTFIATSPMHIATKLRSTLDEVIERAIYMVKRARNYTDDVEFSCEDAGRTPIADLARVVEAAINAGATTINIPDTVGYTMPFEFAGIISGLYERVPNIDKAIISVHTHDDLGLAVGNSLAAVHAGARQVEGAMNGIGERAGNCSLEEVIMAIKVRKDILNVHTAINHQEIWRTSQLVSQICNMPIPANKAIVGSGAFAHSSGIHQDGVLKNRENYEIMTPESIGLNQIQLNLTSRSGRAAVKHRMDEMGYKESEYNLDNLYDAFLKLADKKGQVFDYDLEALAFIGKQQEEPEHFRLDYFSVQSGSNDIATAAVKLACGEEVKAEAANGNGPVDAVYQAINRITEYNVELVKYSLTAKGHGKDALGQVDIVANYNGRRFHGVGLATDIVESSAKAMVHVLNNIWRAAEVEKELQRKAQHNENNKETVEGGSHHHHHH,soluble
5,MGSDKIHHHHHHMAKILVVTDGAYGYRIKGTINSFGKKNKFIGIYKINKPDDLIVDDIEFPDELLEKIKEADILLLYTQHPDNTYYLCYEARRLNKDIAIIVATWSGEGEKKELKKFDAICPEEMCLLDENEVGSLIDKYPKLKEFLEEFGTPKVKVYVKDNKVIDVEVLRTSICGSTLFMAKLMKGMEVNDIEEFAKKSAMLIQRYPCVAGKIKIFRGDCRKQKALNIHKEAVLEGIIFI,not soluble
6,MAHHHHHHMHMNNYHYNNYNVNFNPYNCGVVQESEKKNVGNVNNKVVLQKNYSNEYEMKYKEENKNNKINYLENLLNEPTAKEKKIKEEKTNILSIIEAPTVIEEMRIKKFQKKDDSVKIICPYLTKKVCQKHNKECNKVHFKKIISEHTDVSLGDCSYLDTCRHIETCKFVHYAVDKDDQQMNMNTQENLSQSKLSFSSNIKENVYGPQWIRCDLRNFDLSIFNKYVSVVMADPPWDIHMDLPYGTMTDNEMKLLPVQLIQDEGMIFLWVTGRAMELARECLQIWGYKRVEEILWVKTNHLQRIIRTGRTGHWLNHSKEHCLVGIKGNPIINRNIDCNVIVSEVRETSRKPDEIYSLIERLCPQNLKIELFGRPHNCRSNWITLGNQLNGVVLHHPQIKERYNKVATQFNLPLCEK,not soluble
7,MGSDKIHHHHHHSEENESSGTIEMNQLPGTAQSFLSNYFPGQTPEKIERTNTDQENARLLYRVVFPNEVKVEFSENGGWKRLMIPDQKLPGSLDSLWGKIIEYVQQLFPDDPFIGIENACYGDCVLLSSGKKIAFYYDGTCIGYEMDIKDESGVPQPVRDFVATYFPDGVFQAVVEHIPNENVTAGYSFWLENGFKCVLNDRGQWTEVNGGTELLPVSILETLPAKVTEQLYRDYPAAQVTYIRLEGTCYTIQVSKTVYVTIDPESKPIVVPVMQAQALAEEYFGKLRSISISHPLHTDVLNFKVCLPNGFNMLVNEDASEWLNIDGNGFAFPEKLVASLPEKITEYISAHSNSEITRVDRSVAASFLVELTNGDGLMFDSQGGFLGKEKIELSISEKTYRYMRHQFPDDLNMYFSSYSIEGWIYKLGDGSQVRFDRDGNFVEMIAAAK,not soluble
8,MPAKSSSRTSATSSRRTILRLKVIPWERIISPFPSERGGSMSSLGIDIGGANLKVASKDGWEIIYFPMWREAERLEGKLREIAEKYSTAKAGVVMTAELADFFKSRAEGVEFIAKACKKAFEDVRFLDVEGNLKSDIDNPENFAASNWVASCRFLLEEAYRNFLFVDMGSTTTDIIPVTSKIEAAKTDFERLKRGELIYFGVLRTPVFYVLKEFEGAPLCPEFFAITADVFVTTGDIKEEDYSCDTPDGKGRSREECMRRLARTVCSDLEELGEEKVKELALEAKWAMIDRLSEVIEHKSKIYGLKTVFACGIGEFLIAEACEEAGAECRLISELYGDYSKLFPAYAMLKLVEQHLEHHHHHH,not soluble
9,MLSANRDCAFGRVHDFAGIRNAGDFRDKVPMHTYAQLQPWIERAQHESGAVLTTRPPLFFERSSGNSALQKLIPYTPEFLAQLQGSLTVWLADMYRQVPEISHGSGYWSMSPPLQQPAVSANGIPVGSVSDLQYLQGSAIAGLAGTLLIPDLAHDVVHWRRQTLLALVADADLSFISVWSPTFLTSLLQPLFDTERQTCAWLEAMLPASRKLALRHARAQGVFTELWPRLAAVSCWMDGPSHGYAVQLAALFPQARWLPKGLFATEGVVSVPFGEGQGCPLAIGSHYLEFVGDDGLPRGARSLRMGETAQVLLTTGAGLYRYVLGDRVRMVGNHAGTPRVAFVGRSASACDLVGEKLDEQLVEGVLAQCIDSADSACLIPDSRNTPPHYVALVSTSAVTPGQVLANSIETVLQGSFHYAHARTLGQLGPLRVRFVSGGAQTLAALLQRAAEATGVRAGDVKPRALISRLDTANALLAITEEFECPHL,not soluble
10,MSLKIKVYLYTRVSTSIQIEGYSLEAQKSRMKAFAIYNDYEIVGEYEDAGKSGKSIEGRIQFNRMMEDIKSGKDGVSFVLVFKLSRFARNAADVLSTLHIMQDYGVNLICVEDGIDSSKDAGKLMISVLSAVAEIERENIRIQTMEGRIQKAREGKWNGGFAPYGYKLEDGKLFINEEEAVAIRTIFDQYVNTTIGANGISKYLENHGIRKIPRQNGKNPLFDAGLIRKILKNPVYNGKIAFGRRTLEKVHGTRNEYKQVEQDEYLISEGIHEAIVSDEVWQAAQVKLKSQAKKYEHVNKGKDTRTHLLSGIVKCPICGVGMFGNKCIKKKKDGTKYKDFYYYGCNHRQMIRGHKCTFSKQIREELLDDAVAEVIVKIVSNPKFASMMQEKINMKVDTSEIEKEIDNYQKELRKSHSTKFKLIEEIDNLDVEDKHYKRRKQDLDDRLYRMYDKIDELESSLIDAKAKKQTIEAEKLTGDNIYKVLIYFDKLYKVMNDVERRQLISALISEIQVYEEKQSNGQWLKSITFKLPIIEENLNIDLDNDEQVECVSLLEKRSEGHHHHHH,soluble
11,MADEATRRVVSEIPVLKTNAGPRDRELWVQRLKEEYQSLIRYVENNKNADNDWFRLESNKEGTRWFGKCWYIHDLLKYEFDIEFDIPITYPTTAPEIAVPELDGKTAKMYRGGKICLTDHFKPLWARNVPKFGLAHLMALGLGPWLAVEIPDLIQKGVIQHKEKCNQLEHHHHHH,soluble
12,MRFITIAAVLLVSSLLIVEASSIRDKRQSCGCASQVQPSCSCQQATQPQQYSCSCQNTAPVQTSCSCAQPVQQVTYQVQTSQCAPACQQSCQNQCQFAPSMNECQSSCQQTCQTSSCYTQIAAPAPVQCQPSCMPACEQSCVAPAPVTVQCVPQCQQKCTQQCVQAQPIQQCQPQCQQQCVQQCAPTVAPQVINVNLGISAQCAPQCQQQCQQQCLLQQVPVQQCYQECTQPCQTTCQQAAPQCVQQCAPQCQQPSAPQCQQCQNTCQQYAPVCQQQCAPQCTLPSAPACQQCQTSCQQTQQCQQQCIPQCQQPAAPQCQQCQSACQSPVVAPQIVTVILEPSVSQSAQCVPQCQQSCQQQCIQQQQPMQQCAPACTQSCYQSCSTAQLVQMPCLTQSVNSCSCQQNYSPCGNGQCCKRM,not soluble
13,MSLAFKPARVIFEQDALKYPMGEKLYRFFRDKGTDVSFAASHNRVSAIPGRTRSEKYFEAKRTLVVGVRRTTAFETCKPSAHFQLPLATSCPGKCEYCYLLTNMGKKPYVRIYVNIEEILSAARGYIEDRKPQVTVFEGAATSDPVPVEPYTGALARAVEFFGGQEYGRFRFVTKFTEVDTLLDVPHNGHTRFRFSINTPEVIRRFEHATPPLAERLAAAWKVAAAGYPLGFLVAPIIMYDGWRDSYRDLFKTAAAGLNGKVYDLTFEFITHRFTKRAKGTILEVFPSTRLDMDEEARAFKFGQFGYGKYVYPKELFSDAKIYFEGLAGEYFPGSKVEYFVEGHHHHHH,not soluble
14,SVYINRMTGLSTFVAPTDDLHTACTKDLTTVAVDVLLGNDAVDAAAAAVSEPLQSLFSEWSNPVFARYPEVAVDVSSGQAESLAVKIHNVLYPYRFTKEMIHSVKVLQQVDNKFIACLMSTRMDEDGRTGGNLLVLVDQHAAHERIRLEQLITDSYEKQDPQSAGRKKLLSSTIIPPLAITVSEEQRRLLRN,soluble
15,ISDPVELLKRAEKKGVPSSGFMKLFSGSDSYKFEEAADLCVQAATIYRLRKELNLAGDSFLKAADYQKKAGNEDEAGNTYVEAYKCFKSGGNSVNAVDSLENAIQIFTHRGQFRRGANFKFELGEILENDLHDYAKAIDCYELAGEWYAQDQSVALSNKCFIKCADLKALDGQYIEASDIYSKLIKSSMGNRLSQWSLKDYFLKKGLCQLAATDAVAAARTLQEGQSEDPNFADSRESNFLKSLIDAVNEGDSEQLSEHCKEFDNFMRLDKWKITILNKIKESIQQQEDDLL,soluble
16,MTKCPKCKKIMLTKELDKNMRVCMNCDYHFPMNAKQRIESLMDEQSFEEFNQGMLSENPLGFPGYLEKLEKDREKTSLNEAVVTGKGTIGGHPAVVAVMDSSFRMGSMGSVVGEKITLAIEKAKADKVPFIIFTASGGARMQEGVLSLMQMAKTSSALKLFSEEQGLIISVMTHPTTGGVSASFASLGDYNFAEPGALIGFAGRRIIEQTIGEKLPEDFQTAEFLLKHGQLDAVIHRDDMKKTLENLLDMHQTGGDIEWLQDLEHHHHHH,not soluble
17,MAKQELGTKRVDPETGKKFYDLNRDPIVSPYTGISYPRSYFEVAAAEANSEEEVDTEELDTALEKSAFMLLEDDGDDPKDDDLPDLEDSDVDLGDDDDTFLSHDEDDEDDDVTDILGGGVSKDDDS,not soluble
